This note sets out measurements from patent US12642846B2.

The target in this assay is ZIKV sE-WT protein (Zika virus). Description: SPR (BIOCORE8000), sE amine-coupled on CM5 chip, antibody as mobile phase.

As for 2A10G6 antibody, the Kd (commonly the concentration at which binding is half-saturated) was found to be 9.13 nM.
